Data on one molecule can be found in US20250297030A1 (SHANDONG SIMCERE BIOPHARMACEUTICAL, published 2025).

Where two headings read alike, the source gives them in different places.

Test [1] addresses T1, human MUC17 on NUGC4 endogenous tumor cells (human, UniProt Q685J3 26-4493). The test is described as follows: FACS on NUGC4 cells, MFI. The protocol:
(§1) Then a complete medium was added to stop the digestion, and the cells were blown into a single cell suspension. After counting, the cells were centrifuged, and the cell pellet was resuspended to 2×10⁶ cells/mL in an FACS buffer (PBS+2% fetal bovine serum), and added to a 96-well FACS reaction plate at 100 µL/well. The plate was centrifuged, and the supernatant was discarded. An antibody sample to be tested (diluted in a 3-fold gradient from a starting concentration of 100 nM) was added at 50 µL/well and uniformly mixed with the cells, and the mixture was incubated at 4° C. for 1 h. […] The results were tested and analyzed by FACS (FACS Canto™, purchased from BD) after the plate was centrifuged and washed 3 times with a PBS buffer and resuspended with 100 μL of PBS. Data analysis was performed by software (FlowJo) to obtain the mean fluorescence intensity (MFI) of the cells. Then, analysis was performed by software (GraphPad Prism8), data were fitted, and EC50 values were calculated. As shown in FIGS. 3A-3B, the recombinant antibodies Lab315-huFc, Lab316-huFc, Lab320-huFc, Lab331-huFc, and Lab332-huFc are all capable of binding specifically to NUGC-4 cells.

For test [2], the target named is T1, human MUC17 on NUGC4 endogenous tumor …. Put plainly: FACS on NUGC4 cells, MFI. The protocol: as §1
The preparation of the assay cells and the antibodies to be tested and the assay were performed with reference to Example 3.4. […]
The source holds these as a separate data set.

Test [3] deals with T2, Human MUC17 ECD4131-his (His-tagged human MUC17 protein extracellular domain fusion protein) (human, UniProt Q685J3 4131-4393).
T2 construct: a truncation of the extracellular domain; also called human MUC17-his protein; human MUC17-His
The test is described as follows: ELISA on coated human MUC17 ECD4131-his, OD450. The protocol: (§2) A human MUC17-his protein was diluted with PBS to a final concentration of […] and then added to a 96-well ELISA plate at 50 µL/well. The plate was incubated at 4° C. overnight. The next day, the plate was washed 2 times with PBST, and a blocking buffer [PBS+2% (w/w) BSA] was added for blocking at room temperature for 2 h. The blocking buffer was discarded, and the recombinant antibody and positive and negative control antibody with a starting concentration of 100 nM serially diluted by 3 folds were added at 50 μL/well. After incubation at 37° C. for 1 h, the plate was washed 3 times with PBST. A horseradish peroxidase (HRP)-labeled secondary antibody (purchased from Merck, Cat. No. AP113P) was added for incubation at 37° C. for 1 h, and the plate was washed 5 times with PBST. A TMB substrate was added at 50 μL/well for incubation at room temperature for 10 min, and then a stop solution (1.0 M HCl) was added at 50 µL/well. The OD₄₅₀ nm values were read by an ELISA plate reader (Multimode Plate Reader, EnSight, purchased from Perkin Elmer).

Test [4] has as its target T3, Cyno MUC17 ECD3577-his (His-tagged cynomolgus monkey MUC17 protein extracellular domain fusion protein) (cynomolgus monkey).
T3 construct: also called monkey MUC17-his protein; monkey MUC17 ECD3577-His
T3 chain: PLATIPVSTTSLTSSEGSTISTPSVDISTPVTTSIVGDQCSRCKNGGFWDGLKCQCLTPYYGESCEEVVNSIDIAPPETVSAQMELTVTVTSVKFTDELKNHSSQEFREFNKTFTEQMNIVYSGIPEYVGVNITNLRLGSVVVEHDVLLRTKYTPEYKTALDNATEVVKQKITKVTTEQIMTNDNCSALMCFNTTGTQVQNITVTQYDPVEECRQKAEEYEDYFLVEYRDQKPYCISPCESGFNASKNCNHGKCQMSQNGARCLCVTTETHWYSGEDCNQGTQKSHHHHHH
Put plainly: ELISA on coated monkey MUC17 ECD3577-His, OD450. The protocol:
as §2
The monkey MUC17-his protein was subjected to ELISA and data analysis according to the method described in Example 3.2. The recombinant antibodies Lab315-huFc, Lab316-huFc, Lab320-huFc, Lab331-huFc, and Lab332-huFc have a relatively good binding activity with the monkey MUC17-his protein.
In general terms: An ELISA detects its analyte on a solid surface through an enzyme-linked reagent.

In test [5] the target is T3, Cyno MUC17 ECD3577-his (His-tagged …). Put plainly: ELISA on coated monkey MUC17 ECD3577-His, OD450. The protocol: To assay the binding activity of the humanized antibodies with the monkey MUC17-his protein, the monkey MUC17-his protein was diluted with PBS to a final concentration of […] and subjected to ELISA assay and data analysis according to the method described in Example 3.3. The humanized antibodies SCR-7724, SCR-7782, SCR-7783, SCR-7784, and SCR-7785 have cross-binding activity with the monkey MUC17 protein, maintaining the binding ability of the recombinant antibody.

B1: 2D11-hIgG1 (antibody, V domains shown)
VH: QVQLVESGGGVVQPGRSLRLSCAASGFTFSNHGMHWVRQAPGKCLEWVAGIWSDASNKYYAEAVKGRFTISRDTSKNTLYLQMNSLRAEDTAVYYCARATYTTGWSYFDYWGQGTLVTVSS
VL: SYELTQSPSVSVSPGQTASITCSGDKLGDKYTSWYQQKPGQSPVLVIYHDRKRPSGIPERFSGSNSGNTATLTISGTQAMDEADYYCQAYDRSTAWVFGCGTKLTVLR
notes: Control antibody from WO2019133961A1, expressed as human IgG1 + kappa; also called 21D11; MUC17 control antibody
As usually defined, the EC50 (read off the curve) is the concentration needed to bring the measured effect to its halfway point. As for B1, the “EC50 (read off the curve)” value was ~0.1 nM in test [1]; ~0.1 nM in test [2]; ~0.02 nM in test [3]; ~0.01 nM in test [4]; ~0.05 nM in test [5].
